How the values were obtained:
[1] = biological target: T1, full-length MITF-A (microphthalmia-associated transcription factor, isoform A) (UniProt O75030-2 1-520); assay: cell-based or functional assay
T1 sequence (looked up): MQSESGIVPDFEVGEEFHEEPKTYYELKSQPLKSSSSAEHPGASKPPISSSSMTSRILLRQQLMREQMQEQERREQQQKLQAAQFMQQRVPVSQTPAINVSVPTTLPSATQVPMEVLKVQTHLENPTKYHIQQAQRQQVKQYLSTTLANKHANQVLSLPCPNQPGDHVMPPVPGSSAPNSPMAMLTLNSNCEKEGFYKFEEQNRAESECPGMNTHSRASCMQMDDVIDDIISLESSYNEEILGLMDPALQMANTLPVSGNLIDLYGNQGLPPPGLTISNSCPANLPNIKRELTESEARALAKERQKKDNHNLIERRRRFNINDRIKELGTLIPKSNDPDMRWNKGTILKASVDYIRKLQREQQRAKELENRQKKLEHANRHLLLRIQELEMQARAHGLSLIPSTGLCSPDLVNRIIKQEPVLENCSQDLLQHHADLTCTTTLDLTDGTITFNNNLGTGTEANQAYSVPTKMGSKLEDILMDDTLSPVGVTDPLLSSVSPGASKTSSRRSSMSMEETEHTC

[2] = biological target: T2, full-length MITF-M (microphthalmia-associated transcription factor, isoform M) (UniProt O75030-9 1-419); assay: cell-based or functional assay
T2 sequence (looked up): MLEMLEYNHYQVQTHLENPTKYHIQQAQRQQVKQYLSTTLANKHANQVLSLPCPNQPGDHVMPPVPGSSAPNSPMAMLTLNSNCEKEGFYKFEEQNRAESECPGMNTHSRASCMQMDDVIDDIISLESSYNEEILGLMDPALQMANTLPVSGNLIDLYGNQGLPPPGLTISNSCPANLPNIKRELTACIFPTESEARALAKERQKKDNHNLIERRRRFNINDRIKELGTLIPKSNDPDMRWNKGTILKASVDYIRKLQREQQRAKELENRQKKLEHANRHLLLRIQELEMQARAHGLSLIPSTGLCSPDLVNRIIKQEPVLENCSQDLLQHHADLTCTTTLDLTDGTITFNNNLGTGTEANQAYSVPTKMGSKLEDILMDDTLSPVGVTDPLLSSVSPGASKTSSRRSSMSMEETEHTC

B1: full-length OTX2 (orthodenticle homeobox 2) (natural protein)
chain: not shown
[1]
  luciferase reporter driven by the human TYR promoter construct -152 (MITF sites, no OTX2 sites) in ARPE-19 cells cotransfected with MITF-A and OTX2; activation relative to the empty vector: 20 fold
[2]
  luciferase reporter driven by the human TYR promoter construct -152 (MITF sites, no OTX2 sites) in ARPE-19 cells cotransfected with MITF-M and OTX2; synergism compared with that of MITF-A and OTX2: ~1.7 fold (against MITF-A)

From paper PMC3258524, “Regulation of the human tyrosinase gene in retinal pigment epithelium cells: the significance of transcription factor orthodenticle homeobox 2 and its polymorphic binding site” (Molecular Vision, 2012)
